The test system of experiment [1] is plasma membrane M(H)DM2/4. Kind of experiment: Plasma membrane M(H)DM2/4 after chemotherapeutic agents in vitro. The format is cell-based. The settings on record: data not shown.
Experiment [2] has as its system human pancreatic cancer MIA PaCa-2 cells. Briefly: Cell-ELISA, intact cells. The experiment is classed as binding. On the procedure: (§1) Cell-ELISA Methodology: 8,000-10,000 cells/well of a 96-well microplate were grown overnight. The next day, unbound cells were washed off with sterile 1× PBS. The cells in each well were fixed with freshly prepared 4% buffered paraformaldehyde (pH 7.2) for 1 hour followed by 3 washes with 1× PBS. The wells were then blocked with 5% BSA in PBS (100 ? /well) for 2 hours at room temperature. Microplate wells were then washed 5 times with 300 ? of ice cold 1× PBS. MAbs NMC-103, NMC-204 or NMC-303 at 1 μg/mL in 1% BSA/PBS were then incubated with various cancer or normal untransformed cells for 2 hours at room temperature. Wells were then washed with 300 ? of ice-cold 1× PBS for 5 times and corresponding secondary antibody HRP-GaM F(ab′)2 diluted 1:2500 or 1:5000 in PBS with 1% BSA were added at 100 ? /well for 1 hour at room temperature followed by washing 5 times with 300 ? of ice-cold 1× PBS. TMB Substrate Solution (1-StepTM Ultra TMB-ELISA, ThermoFisher, Cat. No. 34028) was then added at 50 ? ? to each microplate well and incubated at room temperature for 30 minutes. The reaction was stopped by addition of 50 μL, of stop solution (ThermoFisher, Cat. No. SSO4) to each well and absorbance of each well was measured at OD450 nm. The absorbance value of each experimental well was corrected for the absorbance value obtained from wells treated with isotype-identical mAbs included in each experiment. The results are thus expressed as “relative binding”.
(An ELISA detects its analyte on a solid surface through an enzyme-linked reagent.)

The subject of experiment [3] is human, murine, rabbit protein. Further details: key: H—binds to human protein; M—binds to murine protein; R—binds to rabbit protein. The conditions noted are these: Table 10; cited from earlier work.
The target of experiment [4] is NMC-P3 peptide (SEQ ID NO:3), amino acids 475-491 of HDM2 (Homo sapiens, UniProt Q00987). Kind of experiment: Peptide-ELISA, NMC-P3 peptide. The conditions noted are these: 5 μg/ml peptide dried on plate; OD 450 nm. The format is binding. On the procedure:
Peptide-ELISA Methodology: 5 μg/ml of NMC-P1, NMC-P2 or NMC-P3 peptide antigen was dried onto a 96-well ELISA plate overnight. Plates were then blocked with 5% BSA in 1× phosphate-buffered saline (PBS) (100 ? /well) for 2 hours at room temperature. Microplate wells were then washed 5 times with 300 ? of ice cold 1× PBS. Appropriate dilutions of monoclonal antibodies NMC-103, NMC-204 or NMC-303 in 1% bovine serum albumin (BSA) in PBS solution were then incubated with their corresponding peptides (NMC-P1, NMC-P2 or NMC-P3, respectively) at room temperature. After 2 hours, wells were washed 5 times with 300 ? ? ice-cold PBS/well and 100 ? secondary antibody (HRP-labeled Goat anti-Mouse F(ab′)2 H&L cross-adsorbed secondary antibody (HRP-GaM F(ab′)2), ThermoFisher, Cat. No. A24524) diluted 1:2500 to 1:5000 in PBS-1% BSA solution were added and the incubation continued at room temperature. After 1 hour, the wells were washed again 5 times with 200 ? of ice-cold PBS and 50 μiL of the TMB Substrate Solution (1-StepTM Ultra TMB-ELISA, ThermoFisher, Cat. No. 34028) were added to each well and color was allowed to develop for 30 minutes at room temperature. The reaction was stopped by addition of 50 μ ? ? of stop solution (ThermoFisher, Cat. No. SSO4) to each well and absorbance of each well was read immediately for optical density (OD) at 450 nm.

Experiment [5] concerns the target T1, recombinant full-length HDM2 protein (GST tagged) (Homo sapiens, UniProt Q00987).
T1 construct: reacted with the recombinant full-length HDM2 protein; purchased Abcam ab188727
Briefly: Western blot (immunoblot). The experiment is classed as binding. The settings on record: 1 μg/well protein; band at approximately 83 kD; FIG. 2. On the procedure: Western Blot: As for immunoblots, 1 μg/well of recombinant FIDM2 protein (GST tagged, Abeam, Cat. No. ab188727) was separated on 8-16% sodium dodecyl sulfate (SDS) polyacrylamide gel and proteins were then transferred to polyvinylidene difluoride (PVDF) membrane. The membrane was blocked with 5% milk followed by incubation with monoclonal antibody NMC-103, NMC-204 or NMC-303 at 1 μg/πι ? in 1% milk in PBS for 2 hours. The membrane was then washed×3 times (10 minutes each) and incubated for 1 hour with corresponding HRP-conjugated secondary antibody (Goat anti-Mouse IgG (H&L), F(ab′)2 Frag Cross-adsorbed HRP (HRP-GaM F(ab′)2), ThermoFisher, Cat. No. A24524) diluted 1:5000 in 1% BSA-PBS. The membrane was then washed×3 times and incubated with Pierce ECL Plus Western Blotting Substrate (ThermoFisher, Cat. No. #32132) for 10 min before developing on a LICOR Scanner.
In general terms: A western blot detects proteins with antibodies after separation by electrophoresis.

Experiment [6] has as its system human breast cancer MCF-7 cells. Kind of experiment: Cell-ELISA, intact cells. The format is binding. The conditions noted are these: mAb 1 μg/mL, FIGS. 3-5. On the procedure: as §1
The test system of experiment [7] is normal human peripheral blood mononuclear cells (PBMCs). Kind of experiment: Cell-ELISA, intact normal cells. The format is binding. The conditions noted are these: freshly isolated PBMCs; FIG. 6. On the procedure: as §1
For experiment [8], the system named is CT-26 (subcutaneous tumors). Kind of experiment: CT-26 syngeneic mouse model of colon cancer. The format is in vivo, mouse (BALB/c). The settings on record: day 24 post tumor inoculation; 10 mg/kg two times a week for 3 weeks; n=4; FIG. 32A. On the procedure: Utilizing another syngeneic mouse model of colon cancer, CT-26 (Selby et al., 2016, PLoS One. 9; 11(9): e0161779), the anti-tumor efficacy of a chimeric version of monoclonal antibody NMC-303 was assessed. To create the chimeric version of monoclonal antibody NMC-303, isotype class-switching was performed on a mouse NMC-303 (having heavy variable regions of SEQ ID NO:40 and light chain variable regions of SEQ ID NO:41) to convert it from a mouse IgM to a chimeric IgG1. The mouse Heavy and Light chain variable regions (SEQ ID NO:40 and SEQ ID NO:41, respectively) were cloned into a human Ig gamma-1 chain and human Ig kappa chain as constant region. A total of eight (8) BALB/c mice were injected subcutaneously with CT-26 (800,000 cells/mouse). Mice were then divided into two groups (n=4) that received: A) control antibody (10 mg/kg) or B) the chimeric version of monoclonal antibody NMC-303 (10 mg/kg) two times a week for 3 weeks. […] Due to the human constant region of the chimeric version of the monoclonal antibody NMC-303, the anti-tumor efficacy of this antibody might be improved if tested in mouse models with human immune background. The above in vivo results further support the anti-tumor efficacy of antibodies raised against NMC-P3 immunogen that target the extracellularly accessible epitopes of the M(H)DM2/4 on cancer cells.

T1 sequence (Q00987 whole entry): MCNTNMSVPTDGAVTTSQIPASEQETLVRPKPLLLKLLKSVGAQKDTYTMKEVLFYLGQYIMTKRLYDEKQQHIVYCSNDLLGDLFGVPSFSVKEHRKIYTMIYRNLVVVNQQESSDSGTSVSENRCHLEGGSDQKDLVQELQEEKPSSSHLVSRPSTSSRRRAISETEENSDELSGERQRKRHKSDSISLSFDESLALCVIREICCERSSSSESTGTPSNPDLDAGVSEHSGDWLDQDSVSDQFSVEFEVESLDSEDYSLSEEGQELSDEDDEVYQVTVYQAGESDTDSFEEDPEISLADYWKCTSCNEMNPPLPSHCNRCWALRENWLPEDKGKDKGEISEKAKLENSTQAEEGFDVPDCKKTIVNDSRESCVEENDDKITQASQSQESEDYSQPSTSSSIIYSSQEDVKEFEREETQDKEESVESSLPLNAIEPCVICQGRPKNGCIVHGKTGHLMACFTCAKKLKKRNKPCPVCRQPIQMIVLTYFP

For the molecule `Nc1ccn([C@@H]2O[C@H](CO)[C@@H](O)C2(F)F)c(=O)n1` [Gemcitabine], the “plasma membrane M(H)DM2/4 of treated cells” value in experiment [1] was “increase”.
For the molecule `CC(=O)O[C@H]1C(=O)[C@@]2(C)[C@H]([C@H](OC(=O)c3ccccc3)[C@]3(O)C[C@H](OC(=O)[C@H](O)[C@@H](NC(=O)c4ccccc4)c4ccccc4)C(C)=C1C3(C)C)[C@]1(OC(C)=O)CO[C@@H]1C[C@@H]2O` [Paclitaxel], the “plasma membrane M(H)DM2/4 of treated cells” value in experiment [1] is on record as “increase”.
As to Cytochrome C [reference compound], the “binding to intact, EDTA-released MiaPaCa-2 cells, cell-ELISA” value in experiment [2] (EDTA 10 mmols, pH 7.2, 5 min, 37° C., FIG. 10) was “only minimal binding”. For the same molecule, the “Species Reactivity” value in experiment [3] is listed as “H”.

B1: NMC-303: mouse monoclonal antibody, IgM isotype, binds NMC-P3 (SEQ ID NO:3); VH SEQ ID NO:40, VL SEQ ID NO:41 (antibody, V domains shown)
VH: QVQLQQPGAELVKPGASVKLSCKASGYTFTSYYMYWVKQRPGQGLEWIGGINPRNGGTNFNEKFKNKATLTADKSSTTAYMQLSSLTSEDSAVYYCTRSGYYAMDYWGQGTSVTVSS
VL: DIQMTQTTSSLSASLGDRVTISCRASQDISNFLNWYQQKPDGTVKLLIYYTSRLHSGVPSRFSGSGSGTDYSLTISNLEQEDIATYFCQQGNTLPRTFGGGTKLEIK
modifications: mAb NMC-303 Heavy Chain Variable Region; mAb NMC-303 Light Chain Variable Region
On to B1, for which the “binding to NMC-P3 peptide (peptide-ELISA)” value in experiment [4] is given as “bound”. Moreover, the “reactivity with recombinant full-length HDM2-GST protein in immunoblot” value in experiment [5] is recorded as “reacted”. The “relative binding (reactivity) to intact cells, cell-ELISA” value in experiment [6] is recorded as “reactivity”; in experiment [2] (MIA PaCa-2, mAb 1 μg/mL, FIGS. 3-5), “reactivity”. Besides, the “binding to intact MIA PaCa-2 cells when competed with NMC-P3 peptide” value in experiment [2] (FIG. 8C) is reported as “competed”. The “binding to intact normal human PBMCs, cell-ELISA” value in experiment [7] is listed as “virtually no binding”.

B2: chimeric version of monoclonal antibody NMC-303: chimeric IgG1: mouse NMC-303 variable regions cloned into human Ig gamma-1 chain and human Ig kappa chain constant regions (antibody, V domains shown)
VH: B1 VH
VL: B1 VL
modifications: human IgG1 and kappa constant regions lack entries; mAb NMC-303 Heavy Chain Variable Region; mAb NMC-303 Light Chain Variable Region
notes: chimeric IgG1: mouse NMC-303 variable regions cloned into human Ig gamma-1 chain and human Ig kappa chain constant regions
In turn, B2 returned an average tumor size in experiment [8] of 726 mm^3.

The values above are taken from US11407840B2, “Antibodies to M(H)DM2/4 and their use in diagnosing and treating cancer” (NomoCan Pharmaceuticals LLC, priority 2017, dated 2022).
